Where “and” joins values, the source holds several entries; their conditions need not be identical. Identical values can stand only once.
Molecular target: histidine-tagged HIV-1 integrase protein (IN) (HIV-1) (UniProt P04585)
Assay: cell-based or functional assay

Substance | inhibition of IN enzymatic activity
Rev 13-23 peptide (Rev-derived peptide, as used in the IN activity assay) (from UniProt P04618 13-23) | 60 % inhibition and 70 % inhibition
Rev 53-67 peptide (Rev-derived peptide, as used in the IN activity assay) (from UniProt P04618 53-67) | 60 % inhibition and 70 % inhibition

From patent publication US20160032263A1
